± gives the uncertainty stated by the source.

This note sets out measurements from the Human Domainome abundance scans (Beltran et al. 2025).

The labels stand for the following.
B1: Ras GTPase-activating protein 1, residues 281 to 341; numbered along this chain, P20936 (parent)
chain: RRRVRAILPYTKVPDTDEISFLKGDMFIVHNELEDGWMWVTNLRTDEQGLIVEDLVEEVGR

Variants of B1 are the subject of this data set. In words: abundance fitness (aPCA) (normalised: wild type 0, dead -1); higher = more abundant; growth selection in yeast, the domain comes from the species named. As to conditions: Homo sapiens.
As to RRRVRAIMPYTKVPDTDEISFLKGDMFIVHNELEDGWMWVTNLRTDEQGLIVEDLVEEVGR [L8M], the abundance fitness turned out to be 0.044 ± 0.044.

As for RRRVRAICPYTKVPDTDEISFLKGDMFIVHNELEDGWMWVTNLRTDEQGLIVEDLVEEVGR [L8C], the abundance fitness was -0.052 ± 0.026.

With RRRVRAIHPYTKVPDTDEISFLKGDMFIVHNELEDGWMWVTNLRTDEQGLIVEDLVEEVGR [L8H], the abundance fitness is -0.037 ± 0.032.

On to RRRVRAIRPYTKVPDTDEISFLKGDMFIVHNELEDGWMWVTNLRTDEQGLIVEDLVEEVGR [L8R], for which the abundance fitness is -0.059 ± 0.031.

On to RRRVRAIVPYTKVPDTDEISFLKGDMFIVHNELEDGWMWVTNLRTDEQGLIVEDLVEEVGR [L8V], for which the abundance fitness is -0.039 ± 0.027.

In the case of RRRVRAIGPYTKVPDTDEISFLKGDMFIVHNELEDGWMWVTNLRTDEQGLIVEDLVEEVGR [L8G], the abundance fitness was -0.012 ± 0.026.

With RRRVRAIKPYTKVPDTDEISFLKGDMFIVHNELEDGWMWVTNLRTDEQGLIVEDLVEEVGR [L8K], the abundance fitness is -0.129 ± 0.054.

Consider RRRVRAINPYTKVPDTDEISFLKGDMFIVHNELEDGWMWVTNLRTDEQGLIVEDLVEEVGR [L8N], for which the abundance fitness is -0.102 ± 0.028.

RRRVRAIEPYTKVPDTDEISFLKGDMFIVHNELEDGWMWVTNLRTDEQGLIVEDLVEEVGR [L8E]: the abundance fitness was -0.067 ± 0.062.

As for RRRVEAILPYTKVPDTDEISFLKGDMFIVHNELEDGWMWVTNLRTDEQGLIVEDLVEEVGR [R5E], the abundance fitness was -0.138 ± 0.056.

RRRVWAILPYTKVPDTDEISFLKGDMFIVHNELEDGWMWVTNLRTDEQGLIVEDLVEEVGR [R5W]: the abundance fitness is -0.531 ± 0.061.

Take RRRVLAILPYTKVPDTDEISFLKGDMFIVHNELEDGWMWVTNLRTDEQGLIVEDLVEEVGR [R5L]: the abundance fitness was -0.256 ± 0.031.

For RRRVMAILPYTKVPDTDEISFLKGDMFIVHNELEDGWMWVTNLRTDEQGLIVEDLVEEVGR [R5M], the abundance fitness is -0.025 ± 0.055.

As for RRRVGAILPYTKVPDTDEISFLKGDMFIVHNELEDGWMWVTNLRTDEQGLIVEDLVEEVGR [R5G], the abundance fitness is -0.796 ± 0.045.

Turning to RRRVFAILPYTKVPDTDEISFLKGDMFIVHNELEDGWMWVTNLRTDEQGLIVEDLVEEVGR [R5F], the abundance fitness is -0.398 ± 0.031.

Consider RRRVQAILPYTKVPDTDEISFLKGDMFIVHNELEDGWMWVTNLRTDEQGLIVEDLVEEVGR [R5Q], for which the abundance fitness is -0.01 ± 0.057.

Regarding RRRVIAILPYTKVPDTDEISFLKGDMFIVHNELEDGWMWVTNLRTDEQGLIVEDLVEEVGR [R5I], the abundance fitness is -0.055 ± 0.03.

Consider RRRVSAILPYTKVPDTDEISFLKGDMFIVHNELEDGWMWVTNLRTDEQGLIVEDLVEEVGR [R5S], for which the abundance fitness was -0.272 ± 0.027.

Regarding RRRVTAILPYTKVPDTDEISFLKGDMFIVHNELEDGWMWVTNLRTDEQGLIVEDLVEEVGR [R5T], the abundance fitness is -0.21 ± 0.033.

For the variant RRRVKAILPYTKVPDTDEISFLKGDMFIVHNELEDGWMWVTNLRTDEQGLIVEDLVEEVGR [R5K], the abundance fitness is 0.052 ± 0.062.

As to RRRVDAILPYTKVPDTDEISFLKGDMFIVHNELEDGWMWVTNLRTDEQGLIVEDLVEEVGR [R5D], the abundance fitness is -0.86 ± 0.067.

With RRRVHAILPYTKVPDTDEISFLKGDMFIVHNELEDGWMWVTNLRTDEQGLIVEDLVEEVGR [R5H], the abundance fitness was -0.398 ± 0.036.

Turning to RRRVAAILPYTKVPDTDEISFLKGDMFIVHNELEDGWMWVTNLRTDEQGLIVEDLVEEVGR [R5A], the abundance fitness was -0.354 ± 0.037.

For RRRVNAILPYTKVPDTDEISFLKGDMFIVHNELEDGWMWVTNLRTDEQGLIVEDLVEEVGR [R5N], the abundance fitness is -0.754 ± 0.044.

For the variant RRRVPAILPYTKVPDTDEISFLKGDMFIVHNELEDGWMWVTNLRTDEQGLIVEDLVEEVGR [R5P], the abundance fitness was -0.919 ± 0.074.

Regarding RRRVCAILPYTKVPDTDEISFLKGDMFIVHNELEDGWMWVTNLRTDEQGLIVEDLVEEVGR [R5C], the abundance fitness was -0.072 ± 0.03.

With RRRVYAILPYTKVPDTDEISFLKGDMFIVHNELEDGWMWVTNLRTDEQGLIVEDLVEEVGR [R5Y], the abundance fitness is -0.331 ± 0.03.

Consider RRRVVAILPYTKVPDTDEISFLKGDMFIVHNELEDGWMWVTNLRTDEQGLIVEDLVEEVGR [R5V], for which the abundance fitness is -0.007 ± 0.027.

Turning to RRRVRHILPYTKVPDTDEISFLKGDMFIVHNELEDGWMWVTNLRTDEQGLIVEDLVEEVGR [A6H], the abundance fitness is -0.925 ± 0.034.

Turning to RRRVRIILPYTKVPDTDEISFLKGDMFIVHNELEDGWMWVTNLRTDEQGLIVEDLVEEVGR [A6I], the abundance fitness is -0.885 ± 0.031.

As to RRRVRCILPYTKVPDTDEISFLKGDMFIVHNELEDGWMWVTNLRTDEQGLIVEDLVEEVGR [A6C], the abundance fitness is -0.829 ± 0.027.

As for RRRVRNILPYTKVPDTDEISFLKGDMFIVHNELEDGWMWVTNLRTDEQGLIVEDLVEEVGR [A6N], the abundance fitness is -0.908 ± 0.032.

RRRVREILPYTKVPDTDEISFLKGDMFIVHNELEDGWMWVTNLRTDEQGLIVEDLVEEVGR [A6E]: the abundance fitness is -0.819 ± 0.054.

Take RRRVRVILPYTKVPDTDEISFLKGDMFIVHNELEDGWMWVTNLRTDEQGLIVEDLVEEVGR [A6V]: the abundance fitness was -0.899 ± 0.028.

As for RRRVRMILPYTKVPDTDEISFLKGDMFIVHNELEDGWMWVTNLRTDEQGLIVEDLVEEVGR [A6M], the abundance fitness is -0.804 ± 0.05.

On to RRRVRSILPYTKVPDTDEISFLKGDMFIVHNELEDGWMWVTNLRTDEQGLIVEDLVEEVGR [A6S], for which the abundance fitness is -0.258 ± 0.02.

On to RRRVRRILPYTKVPDTDEISFLKGDMFIVHNELEDGWMWVTNLRTDEQGLIVEDLVEEVGR [A6R], for which the abundance fitness was -0.908 ± 0.029.

Consider RRRVRQILPYTKVPDTDEISFLKGDMFIVHNELEDGWMWVTNLRTDEQGLIVEDLVEEVGR [A6Q], for which the abundance fitness is -0.915 ± 0.061.

For RRRVRDILPYTKVPDTDEISFLKGDMFIVHNELEDGWMWVTNLRTDEQGLIVEDLVEEVGR [A6D], the abundance fitness is -0.953 ± 0.035.

For RRRVRTILPYTKVPDTDEISFLKGDMFIVHNELEDGWMWVTNLRTDEQGLIVEDLVEEVGR [A6T], the abundance fitness was -0.84 ± 0.034.

Turning to RRRVRLILPYTKVPDTDEISFLKGDMFIVHNELEDGWMWVTNLRTDEQGLIVEDLVEEVGR [A6L], the abundance fitness is -0.896 ± 0.029.

With RRRVRWILPYTKVPDTDEISFLKGDMFIVHNELEDGWMWVTNLRTDEQGLIVEDLVEEVGR [A6W], the abundance fitness is -0.953 ± 0.051.

For RRRVRFILPYTKVPDTDEISFLKGDMFIVHNELEDGWMWVTNLRTDEQGLIVEDLVEEVGR [A6F], the abundance fitness was -0.919 ± 0.03.

Turning to RRRVRPILPYTKVPDTDEISFLKGDMFIVHNELEDGWMWVTNLRTDEQGLIVEDLVEEVGR [A6P], the abundance fitness was -1.04 ± 0.05.
